According to paper PMC3025356, “Mechanism of the Ca^2+-Dependent Interaction between S100A4 and Tail Fragments of Nonmuscle Myosin Heavy Chain IIA” (Journal of Molecular Biology, 2011):

Experiments:
[1] = test system: M200 filaments; assay: Stopped-flow turbidity, dissociation of M200 filaments on NaCl jump or dilution; assay type: biochemical, human
Description: (§1) Fig. 9 Dissociation of M200 filaments by S100A4. (a) Initially, M200 was added (i) from a concentrated stock in 0.5 M NaCl to give a final concentration of 5 μM M200 (with respect to the polypeptide chain) in 100 mM NaCl, 10 mM Hepes, and 0.1 mM Ca^2+ at pH 7.5 and 20 °C. A biphasic rise in turbidity was recorded for 200 s (continuous line). Then 10 μM S100A4 (with respect to monomer concentration) was added (ii), followed by 0.2 mM EGTA (iii) and 1 mM Ca^2+ (iv). […] (b) M200 was diluted (i) into 100 mM NaCl to form filaments as in (a), then 5 μM S100A4 was added (ii), causing a 54% drop in turbidity. A further 5 μM S100A4 (iii) caused turbidity to fall to almost zero. (c) Stopped-flow records monitoring the dissociation of 5 μM M200 filaments on jumping [NaCl] from 100 mM to 120 mM NaCl. Other components of the buffer were 20 mM Hepes, 1 mM Mg^2+, and 100 μM Ca^2+ at pH 7.5 and 20 °C. […] In the presence of 20 μM S100A4 (lower trace), the turbidity decreased by 87% with a rate constant of 0.2 s^− 1.
It is of interest to know whether S100A4 drives depolymerisation solely by binding to free M monomer and allowing the polymer equilibrium to readjust (i.e., via k− 4 and k5), or whether S100A4 also binds to the filament bundle and actively depolymerises an M200 unit (via k6 and k− 7). […] In an attempt to address this question, the dissociation rate of the M200 filament was followed on jumping the NaCl concentration from 100 mM to 120 mM in the absence and in the presence of S100A4 (Fig. 9c). Under these conditions in the absence of S100A4, turbidity dropped to about 50% of its initial value with a profile fitted to a double exponential (k1obs = 0.33 s^− 1 with 12% amplitude and k2obs = 0.037 s^− 1 with 43% amplitude, relative to the total amplitude expected for a full dissociation). Therefore, at the end point of this reaction, the filament concentration decreased by about 2-fold (turbidity is proportional to concentration over this range; Fig. S5b). There should also be a corresponding rise in M200 monomer concentration, but this may be less than accounted for by the loss of filaments if the drop in turbidity was also associated with a rise in small M200 oligomers with a lower specific turbidity. […]

[2] = target: T1, S100A4 (Homo sapiens, UniProt P26447); assay: Competition of M32/M16^N with M200 for S100A4 (turbidity); assay type: biochemical; conditions: turbidity competition
T1 construct: We used full-length S100A4 for this analysis; made in house; host or cells: Escherichia coli BL21(DE3)
Description: as §1
Further information on Scheme 2 was obtained from competition assays. […] An independent estimate of K5 based on the Ca^2+ dependence of the turbidity assay yielded a value of 0.003 μM (see Supplementary Data).
The decrease in fluorescence, […]
that F-M16N binding was slightly faster. […]
A second estimate was calculated from the apparent Ca2+ binding constant observed in the turbidity assay […]

T1 sequence (P26447 whole entry): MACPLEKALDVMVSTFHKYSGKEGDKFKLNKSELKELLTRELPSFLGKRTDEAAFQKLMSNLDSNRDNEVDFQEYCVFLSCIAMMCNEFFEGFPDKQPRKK

B1: M200: His-tagged human NM-MHC IIA residues Q1761-E1960, V1913I substitution (protein, UniProt P35579 1761-1960, looked up, variant V1913I)
chain: QINTDLNLERSHAQKNENARQQLERQNKELKVKLQEMEGTVKSKYKASITALEAKIAQLEEQLDNETKERQAACKQVRRTEKKLKDVLLQVDDERRNAEQYKDQADKASTRLKQLKRQLEEAEEEAQRANASRRKLQRELEDATETADAMNREISSLKNKLRRGDLPFVVPRRMARKGAGDGSDEEVDGKADGAEAKPAE
modifications: His tag
notes: His-tagged human NM-MHC IIA residues Q1761-E1960, V1913I substitution
For B1, the “turbidity change on dilution relative to that with S100A4” value ([1]; 2-fold dilution at 100 mM NaCl, no S100A4) was 10%, the “fast rate constant, no S100A4” value ([1]; NaCl jump 100 to 120 mM) was 0.33 s^− 1 and the “slow rate constant, no S100A4” value ([1]; NaCl jump 100 to 120 mM) was 0.037 s^− 1. The “turbidity of initial value after NaCl jump” value ([1]; NaCl jump, no S100A4) was “about 50%” and the “binding relative to M32” value [2] was 3 orders of magnitude tighter than M32.
